Experimental data: patent US20250282887A1 (Amgen, published 2025)

T1: Human MAGEB2 (Melanoma-associated antigen B2) (human, UniProt O15479 1-319)
T1 construct: Intracellular antigen detected by IHC in FFPE material: CHO cells transfected with human MAGEB2 (mCherry vector with Myc/DDK tags, or ORF without tags)
T1 sequence: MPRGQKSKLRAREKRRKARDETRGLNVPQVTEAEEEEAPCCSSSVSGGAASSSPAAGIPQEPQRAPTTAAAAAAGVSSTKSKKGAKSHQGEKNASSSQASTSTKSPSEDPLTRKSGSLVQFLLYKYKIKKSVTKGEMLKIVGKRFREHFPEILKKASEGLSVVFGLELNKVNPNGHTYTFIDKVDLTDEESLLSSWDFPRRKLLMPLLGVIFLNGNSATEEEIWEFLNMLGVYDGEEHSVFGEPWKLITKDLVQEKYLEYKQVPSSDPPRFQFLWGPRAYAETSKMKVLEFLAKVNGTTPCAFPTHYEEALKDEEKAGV

T2: human MAGEA8 (human, UniProt P43361 1-318)
T2 construct: whole, on cells; FFPE cell pellets
T2 sequence (looked up): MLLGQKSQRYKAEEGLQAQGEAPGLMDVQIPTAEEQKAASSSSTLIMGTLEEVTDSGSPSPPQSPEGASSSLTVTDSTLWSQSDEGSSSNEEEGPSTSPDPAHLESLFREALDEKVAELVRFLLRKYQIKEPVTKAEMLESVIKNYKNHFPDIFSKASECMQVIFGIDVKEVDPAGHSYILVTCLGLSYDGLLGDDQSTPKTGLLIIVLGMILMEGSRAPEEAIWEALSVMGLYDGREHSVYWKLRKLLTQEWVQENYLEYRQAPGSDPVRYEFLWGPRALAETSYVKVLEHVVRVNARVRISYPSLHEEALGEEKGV


Columns and labels:
[1] = target: T1, Human MAGEB2 (Melanoma-associated …); experiment: IHC on FFPE U20S cells (endogenous MAGEB2)
Protocol: (§1) FFPE samples were sectioned at 4 μm and mounted on positive charged glass slides. After mounting, paraffin sections were air-dried at room temperature. FFPE TMA samples were received as freshly sectioned and mounted on glass slides. The fully automated IHC assay was performed on a Discovery Ultra Stainer (Ventana Medical Systems, Tucson, AZ) using Ventana Anti-Rabbit HQ (cat #760-4815), Ventana Anti-HQ HRP (cat #760-4820), and Ventana Antibody Diluent with Casein (cat #760-219) (Ventana Medical Systems, Tucson, AZ). The slides were baked on the Discovery Ultra Stainer at 60° C. for 8 minutes, de-paraffinized with Ventana Discovery wash (cat #950-510) for 3 cycles (8 minutes each) at 69° C., and underwent cell conditioning (target retrieval) at 95° C. for 16 minutes (for cell arrays) or 32 minutes (tissues or TMAs) in CC1 buffer (cat #950-500). Following this, slides were incubated with Background Sniper (cat #BS966M, Biocare Medical, Pacheco, CA) in a Ventana Option Prep kit (cat #771-751) for 28 minutes, incubated with CM inhibitor (a part of the Ventana DAB kit cat #760-159) for 12 minutes, and incubated for 1 h at RT with MAGE-B2 antibody diluted with Ventana diluent with Casein in a Ventana Prep kit (cat #770-001) (working concentration at 0.1 μg/ml for cell pellet, or 1-5 ug/ml for tissues) or with a matched concentration of isotype control Rabbit IgG1 antibody. Following this, slides were incubated with the Ventana Anti-Rabbit HQ (cat #760-4815) for 28 minutes at RT, Ventana Anti-HQ HRP (cat #760-4820) for 28 minutes at RT, and signals detected with Ventana DAB chromogen kit (cat #760-159) for 5 minutes at RT. Slides were counterstained with Ventana Hematoxylin II (cat #5266726001) for 8 minutes and Ventana Bluing reagent (cat #526676900) for 4 minutes. Slides were coverslipped and digitized using an Aperio AT2 scanner (Leica Biosystems Inc, Buffalo Grove, IL).

[2] = target: T1, Human MAGEB2 (Melanoma-associated …); experiment: IHC on FFPE UM-UC-3 cells (endogenous MAGEB2)
Protocol: as §1

human MAGEA2 = target: T3, human MAGEA2 (human, UniProt P43356 1-314); experiment: IHC, FFPE CHO cells transfected with human MAGEA2
T3 construct: whole, on cells; FFPE cell pellets
Protocol: as §1

human MAGEA8 = target: T2, human MAGEA8; experiment: IHC, FFPE CHO cells transfected with human MAGEA8
Text: Negative control cells included parental Chinese hamster ovary (CHO) cells, CHO cells stably transfected with mCherry Vector Control (minus Myc/DDK tags), CHO cells stably transfected with mCherry-human DCAF4L2 (plus Myc/DDK tags). The cross-reactivity control cells included CHO cells transfected with mCherry Vector Control (plus Myc/DDK tags) with one of the human MAGE-B or MAGE-A family members (MAGEA1, MAGEA2, MAGEA3, MAGEA4, MAGEA5, MAGEA6, MAGEA8, MAGEA9, MAGEA11, MAGEA12, MAGEB1, MAGEB3, MAGEB4, MAGEB5, MAGEB6, MAGEB10, MAGEB16, MAGEB17, MAGEB18). Positive control cell lines included CHO cells transfected with mCherry Vector (plus Myc/DDK tags) with human MAGE-B2 or CHO cells transfected with mCherry Vector (open reading frame (ORF); minus Myc/DDK tags) with human MAGEB2, and thirteen human cancer cell lines with known endogenous RNA expression level of MAGEB2 (U266B1, T98G, KMM-1, U20S, CFPAC-1, SCaBER, UACC-257, CFPAC-1, VMRC-LCD, NCI-H1703, UM-UC-3, NCI-H1395, NCIH82).
as §1, with “antibody.” for “antibody. Following this, slides were incubated with the Ventana Anti-Rabbit HQ (cat #760-4815) for 28 minutes at RT, Ventana Anti-HQ HRP (cat #760-4820) for 28 minutes at RT, and signals detected with Ventana DAB chromogen kit (cat #760-159) for 5 minutes at RT. Slides were counterstained with Ventana Hematoxylin II (cat #5266726001) for 8 minutes and Ventana Bluing reagent (cat #526676900) for 4 minutes. Slides were coverslipped and digitized using an Aperio AT2 scanner (Leica Biosystems Inc, Buffalo Grove, IL).”

T3 sequence (P43356 whole entry): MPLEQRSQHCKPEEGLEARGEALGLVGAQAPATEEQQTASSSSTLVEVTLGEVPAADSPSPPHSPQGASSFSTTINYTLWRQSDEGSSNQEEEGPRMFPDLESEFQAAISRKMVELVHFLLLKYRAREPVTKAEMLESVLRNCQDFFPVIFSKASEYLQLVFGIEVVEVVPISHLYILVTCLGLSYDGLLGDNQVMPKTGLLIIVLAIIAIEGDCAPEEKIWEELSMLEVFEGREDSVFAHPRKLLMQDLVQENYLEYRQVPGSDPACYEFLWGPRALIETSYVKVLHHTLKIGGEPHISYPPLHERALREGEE

Row | Binder | IHC % Frequency [1] | IHC Intensity [1] | IHC Intensity [2] | binding result (human MAGEA2) | binding result (human MAGEA8)
1 | 1I14 (antibody, V domains shown, also called MAGE-B2 (1i14)) VH: QSVEESGGRLVTPGTPLTLTCTISGFSLSSYAMSWVRQAPGKGLEWIGSIGGGGSAVYASWAKGRFTISKTSTTVDLRITSPTTEDTAMYFCGRGFYSIDLWGPGTLVTVSS VL: DVVMTQTPASVEATVGGTVTIKCQSSQSVYDNNALAWYQQNAGQRPRLLIYGASTLASGVPSRFSASGSGTEFTLTISDLECADAATYYCQCTYYVSSYQNDFGGGTEVVVKG | 70% | 2 | 0 | no binding (tested: 0.1 µg/ml) | no binding (tested: 0.1 µg/ml)
2 | 1C3 (antibody, V domains shown, also called MAGE-B2 (IC3); anti-MAGEB2 antibody 1C3) VH: QSLEESGGGLVQPEGSLTLTCTAFGVTLTNYYICWVRQAPGKGLEWVGCIDNANGRTYYASWAKGRFTISKTSSTTGTLQMTSLTAADTATYFCARSLATPLWGPGTLVTVSS VL: DIVMTQTPSSVEAAVGGTVTIKCQASQNISSYLAWYQQKPGQPPKLLIYRASTLASGVPSRFKGSGSGTQFTLTISDLECADAATYYCQSYDDSRSSNFFYAFGGGTEVVVKG | 60% | 2 | – | no binding (tested: 0.1 µg/ml) | no binding (tested: 0.1 µg/ml)
3 | 4G17 (antibody, IgG1, V domains shown, Rabbit monoclonal IgG1; Tested as supernatant and as small batch purified antibody; also called MAGE-B2 (4G17); anti-MAGEB2 antibody 4G17) VH: QSLEESGGGLVQPEGSLTLTCTASGVTLSNYYICWVRQAPGKGLEWIGCIDNVNGRTYYASWAKGRFTISKTSSTTGTLQMTSLTAADTATYFCARSLATPLWGPGTLVTVSS VL: DIVMTQTPASVEAAVGGTVTIKCQASQNIDSYLAWYQQKPGQPPKLLIYRASTLASGVPSRFKGSGSGTEFTLTISDLECADAATYYCQSYDDSRSSSFFYGFGGGTEVVVK | 60% | 2 | 0 | no binding (tested: 0.1 µg/ml) | no binding (tested: 0.1 µg/ml)
4 | 1J15 (antibody, IgG1, V domains shown, Rabbit monoclonal IgG1; Tested as supernatant and as small batch purified antibody; also called MAGE-B2 (IJ15); anti-MAGEB2 antibody 1J15) VH: QSLEESGGGLVQPEGSLTLTCTAFGFTLNNYYICWVRQAPGKGLEWIACIDNANGRTYYASWAKGRFTISKTSSTTVTLQMTSLTAADTATYFCARSLSTPLWGPGTLVTVSS VL: DIVMTQTPASVEAAVGGTVTIKCQASQSISSYLSWYQQKPGQPPKLLIYRASTLASGVPSRFRGSGSGTQFTLTISDLECADAATYYCQSYDDSSDNNFFYGFGGGTEVVVR | 50% | 1 | 0 | no binding (tested: 0.1 µg/ml) | no binding (tested: 0.1 µg/ml)
